Experimental data published in US20180282418A1 (CANCER RESEARCH TECHNOLOGY, published 2018).
Substitutions are numbered along the chain they refer to.

T1: full-length human MMRN2 with a His tag overexpressed in HEK293T cells (human, UniProt Q9H8L6 23-949)
T1 construct: Used as lysate of transfected HEK293T cells; also called hMMRN2; MMRN2 protein lysate; not shown: His tag of the pHL-Avitag3 vector
T1 sequence: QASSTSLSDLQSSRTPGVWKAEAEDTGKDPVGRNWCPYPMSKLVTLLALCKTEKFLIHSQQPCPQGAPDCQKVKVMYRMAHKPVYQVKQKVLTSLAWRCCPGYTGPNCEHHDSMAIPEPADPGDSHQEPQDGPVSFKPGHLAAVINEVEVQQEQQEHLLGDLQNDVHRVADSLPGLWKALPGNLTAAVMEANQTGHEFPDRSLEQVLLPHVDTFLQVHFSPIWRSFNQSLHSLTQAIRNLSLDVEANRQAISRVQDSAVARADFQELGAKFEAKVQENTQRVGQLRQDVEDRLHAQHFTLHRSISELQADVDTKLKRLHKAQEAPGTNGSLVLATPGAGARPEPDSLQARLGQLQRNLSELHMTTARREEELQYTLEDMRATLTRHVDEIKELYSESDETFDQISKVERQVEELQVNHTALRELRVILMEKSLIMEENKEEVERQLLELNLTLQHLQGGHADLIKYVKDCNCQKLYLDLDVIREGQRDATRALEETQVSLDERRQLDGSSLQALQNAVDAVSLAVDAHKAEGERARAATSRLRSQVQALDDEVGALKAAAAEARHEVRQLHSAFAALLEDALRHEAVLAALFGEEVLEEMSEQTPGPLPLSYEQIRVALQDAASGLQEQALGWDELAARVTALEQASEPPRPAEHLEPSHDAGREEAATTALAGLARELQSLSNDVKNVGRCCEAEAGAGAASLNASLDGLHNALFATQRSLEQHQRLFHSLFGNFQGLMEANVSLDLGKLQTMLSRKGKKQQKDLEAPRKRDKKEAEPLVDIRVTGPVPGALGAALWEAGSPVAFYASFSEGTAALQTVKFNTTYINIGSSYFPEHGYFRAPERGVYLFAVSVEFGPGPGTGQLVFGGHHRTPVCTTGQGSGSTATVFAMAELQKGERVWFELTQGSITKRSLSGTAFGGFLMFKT

T2: CLEC14A with regions 122-142 of CD141 (human, UniProt Q86T13 22-490)
T2 construct: also called 122-142 chimera; not shown: C-terminal GFP tag (all constructs have one)
T2 sequence: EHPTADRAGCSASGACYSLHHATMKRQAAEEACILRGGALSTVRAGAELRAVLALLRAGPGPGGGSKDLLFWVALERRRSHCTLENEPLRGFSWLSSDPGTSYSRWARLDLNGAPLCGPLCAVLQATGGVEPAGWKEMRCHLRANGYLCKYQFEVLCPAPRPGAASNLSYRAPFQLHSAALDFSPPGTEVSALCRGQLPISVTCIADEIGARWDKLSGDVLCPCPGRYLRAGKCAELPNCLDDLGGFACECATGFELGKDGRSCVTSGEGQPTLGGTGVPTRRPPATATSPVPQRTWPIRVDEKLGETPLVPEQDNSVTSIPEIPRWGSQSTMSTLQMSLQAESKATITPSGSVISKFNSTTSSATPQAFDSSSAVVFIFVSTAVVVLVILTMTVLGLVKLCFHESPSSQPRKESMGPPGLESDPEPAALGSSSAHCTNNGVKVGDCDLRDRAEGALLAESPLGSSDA

B1: HA-CLEC14A (CLEC14A wild type with an N-terminal HA tag) expressed in HEK293T cells (receptor)
chain: EHPTADRAGCSASGACYSLHHATMKRQAAEEACILRGGALSTVRAGAELRAVLALLRAGPGPGGGSKDLLFWVALERRRSHCTLENEPLRGFSWLSSDPGGLESDTLQWVEEPQRSCTARRCAVLQATGGVEPAGWKEMRCHLRANGYLCKYQFEVLCPAPRPGAASNLSYRAPFQLHSAALDFSPPGTEVSALCRGQLPISVTCIADEIGARWDKLSGDVLCPCPGRYLRAGKCAELPNCLDDLGGFACECATGFELGKDGRSCVTSGEGQPTLGGTGVPTRRPPATATSPVPQRTWPIRVDEKLGETPLVPEQDNSVTSIPEIPRWGSQSTMSTLQMSLQAESKATITPSGSVISKFNSTTSSATPQAFDSSSAVVFIFVSTAVVVLVILTMTVLGLVKLCFHESPSSQPRKESMGPPGLESDPEPAALGSSSAHCTNNGVKVGDCDLRDRAEGALLAESPLGSSDA
notes: also called CLEC14A wild type (WT); not shown: N-terminal HA tag
B2: CLEC14A monoclonal antibody C4 (antibody, V domains shown)
VH: QVQLQQSGAELMKPGASVKISCKATGYTFSSYWIEWVNRRPGHGLEWIGEILPGSGSTNYNEKFKGKATFTADTSSNTAYMQLSSLTSEDSAVYYCARGGDYDEEYYLMDYWGQGTTLTVSS
VL: QIVLTQSPAIMSASPGEKVTMTCSASSSVSYMYWYQQKPGSSPRLLIYDTSNLASGVPVRFSGSGSGTSYSLTISRMEAEDAATYYCQQWSSYPLTFGAGTKLEIKR
notes: Mouse monoclonal antibody raised against murine CLEC14A-Fc; The entries carry cloning residues (N-terminal MA on VH, C-terminal AA on VL); also called CRT4; clone C4
B3: CLEC14A monoclonal antibody C5 (antibody, V domains shown)
VH: AEVQLQQSGAELMKPGASVKISCKATGYTFSSYWIEWVNQRPGHGLEWIGEILPGSGSTNYNEKFKGKATFTADTSSNTAYMQLSSLTSEDSAVYYCARGGDYDEEYYAMDYWGQGTSVTL
VL: B2 VL with A82G, I105L
notes: CLEC14A monoclonal antibody; also called CRT5
B4: CLEC14A with regions 97-108 of CD141 (receptor)
chain: EHPTADRAGCSASGACYSLHHATMKRQAAEEACILRGGALSTVRAGAELRAVLALLRAGPGPGGGSKDLLFWVALQLPPGCGDPKRLPLRGFSWLSSDPGGLESDTLQWVEEPQRSCTARRCAVLQATGGVEPAGWKEMRCHLRANGYLCKYQFEVLCPAPRPGAASNLSYRAPFQLHSAALDFSPPGTEVSALCRGQLPISVTCIADEIGARWDKLSGDVLCPCPGRYLRAGKCAELPNCLDDLGGFACECATGFELGKDGRSCVTSGEGQPTLGGTGVPTRRPPATATSPVPQRTWPIRVDEKLGETPLVPEQDNSVTSIPEIPRWGSQSTMSTLQMSLQAESKATITPSGSVISKFNSTTSSATPQAFDSSSAVVFIFVSTAVVVLVILTMTVLGLVKLCFHESPSSQPRKESMGPPGLESDPEPAALGSSSAHCTNNGVKVGDCDLRDRAEGALLAESPLGSSDA
notes: also called this mutant; not shown: C-terminal GFP tag (all constructs have one)

How the values were obtained:
[1] = target: T1, full-length human MMRN2 with a His tag …; experiment: far Western blot of HEK293T lysates with MMRN2 protein lysate, non-reduced
From the text: FIG. 13—MMRN2 directly binds to either the C-type lectin or sushi domain of CLEC14A under non-reduced conditions. HEK293T cells were mock transfected or transfected with pCS2 vectors containing CLEC14A wild type (WT) or constructs with each major domain deleted (Δ) with an N-terminal HA tag. Upon far western blotting with MMRN2 protein lysate, binding can be seen in all mutants except those missing the C-type lectin domain (CTLD) or the sushi domain. An anti-HA blot was included to show all mutant proteins were expressed.

[2] = target: T3, wild type thrombomodulin with GFP tag expressed in HEK293T cells (UniProt P07204 19-575); experiment: flow cytometry on GFP-gated HEK293T cells
T3 construct: whole, on cells; also called WT CD141; CD141; not shown: C-terminal GFP tag
T3 sequence (P07204 19-575): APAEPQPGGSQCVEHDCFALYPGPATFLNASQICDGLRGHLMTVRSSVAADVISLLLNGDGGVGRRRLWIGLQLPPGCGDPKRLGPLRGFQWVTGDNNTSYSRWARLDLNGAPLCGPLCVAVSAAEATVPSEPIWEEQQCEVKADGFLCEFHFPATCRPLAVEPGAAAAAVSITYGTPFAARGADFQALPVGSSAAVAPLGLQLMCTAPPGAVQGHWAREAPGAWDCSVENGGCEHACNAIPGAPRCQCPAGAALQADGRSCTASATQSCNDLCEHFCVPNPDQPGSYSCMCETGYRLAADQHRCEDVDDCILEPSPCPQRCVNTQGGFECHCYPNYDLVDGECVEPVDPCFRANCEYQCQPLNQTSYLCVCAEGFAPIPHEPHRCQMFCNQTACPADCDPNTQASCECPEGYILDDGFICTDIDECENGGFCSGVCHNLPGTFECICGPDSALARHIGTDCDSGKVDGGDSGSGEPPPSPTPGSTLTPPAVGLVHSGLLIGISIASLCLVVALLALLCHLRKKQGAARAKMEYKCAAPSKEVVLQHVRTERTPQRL
Experimental: (§1) FIG. 15—Binding of CRT antibodies was analysed using flow cytometry. All constructs have a C-terminus GFP tag so green cells were gated and stained red. All CRT antibodies bind to CLEC14A wild type with a C terminal GFP tag expressed in HEK293T cells. None of the CRT antibodies bind to wild type thrombomodulin with GFP tag expressed in HEK293T cells.
(§2) Binding of CRT antibodies was analysed using flow cytometry. All constructs have a C-terminus GFP tag so green cells were gated and stained red. All CRT antibodies bind WT CLEC14A and—as expected—none binds to WT CD141 (FIG. 15). In addition, none of the antibodies bound to Chimera 5 (except slight binding by CRT2) and all of the antibodies bind to Chimera 6 (except CRT2) (FIG. 15). This confirms that the binding site of the antibodies CRT1, 3, 4 and 5 and MMRN2 are within the C type lectin domain. It is possible that CRT2 binds on a region between the CTLD and sushi domain.

[3] = target: Chimera 6 (CLEC14A with SUSHI of CD141) fused to GFP tag; experiment: flow cytometry on GFP-gated HEK293T cells
Experimental: as §1, §2

[4] = target: T2, CLEC14A with regions 122-142 of CD141; experiment: flow cytometry; the filing says the chimera did not fold correctly
[5] = target: B4; experiment: flow cytometry on HEK293T cells
[6] = target: T1, full-length human MMRN2 with a His tag …; experiment: method for MMRN2 not told

B1
binding result [1]: binds

B2
binding result [2]: no binding
binding result [3]: binds
binding result [4]: no binding
binding result [5]: no binding

B3
binding result [2]: no binding
binding result [4]: no binding
binding result [5]: no binding

B4
binding result [6]: no binding
